Experimental data: US20250314643A1, “FLUORESCENT COMPLEXES COMPRISING TWO RHODAMINE DERIVATIVES AND A NUCLEIC ACID MOLECULE” (CENTRE NATIONAL DE LA RECHERCHE SCIENTIFIQUE, priority 2019, published 2025)

B1: 4C10: duplicated SRB-2 variant RNA aptamer displaying 6 point mutations (nucleic acid)
chain: AGAACCCCGCUUCGGCGGUGAUGGAGAGGCGCAAGGUUAACCGCCUCAGGUUCCNNNNNNNNNNNNNNNNNNNNNNNNNNNNNNNNNNNNNNNNNNNNNNNNNNNNNNNNNNNNGGGGCCUCGCUUCGGCGAUGAUGGAGAGGCGCAAGGUUAACCGCCUCAGGUUCU
modifications: fluorophore binding aptamers; (55)..(72) N represents A, U, G or C; (73)..(114) N represents A, U, G or C or is absent
notes: duplicated SRB-2 variant RNA aptamer displaying 6 point mutations
B2: o-Coral: light-up RNA aptamer, 4C10 derivative with 6-nucleotide long linker (nucleic acid)
chain: GGGAGACAGCUAGAGUACAGGAACCCCGCUUCGGCGGUGAUGGAGAGGCGCAAGGUUAACCGCCUCAGGUUCCGGUGACGGGGCCUCGCUUCGGCGAUGAUGGAGAGGCGCAAGGUUAACCGCCUCAGGUUCUGACACGAGCACAGUGUAC
modifications: fluorophore binding aptamers
notes: light-up RNA aptamer, 4C10 derivative with 6-nucleotide long linker
B3: SRB-2: parental RNA aptamer previously developed to interact with sulforhodamine B (nucleic acid)
chain: GGGAGACAGCUAGAGUACGGAACCUCGCUUCGGCGAUGAUGGACAGGUUCCGACACGAGCACAGUGUAC
modifications: listed as RNA, chemistry not given here

What was measured:
[1] = Fluorescence Correlation Spectroscopy (FCS) analysis of the fluoromodules; format: physicochemical
[2] = Affinity measurements (Kd, fluorescence titration of Gemini-561 with RNA); format: binding; settings: for Kd: 40 mM potassium phosphate pH 7.5, 100 mM KCl, 1 mM MgCl2, 0.05% Tween 20, 100 nM (SRB-2) or 25 nM (4C10) Gemini-561
Description: The Kd value can be obtained by measuring the fluorescence intensity of the fluorophore in aqueous medium with increasing amount of the said nucleic acid. The plot of the fluorescence intensity versus the concentration of the said nucleic acid will provide the Kd value after fitting with the proper equation (example: Hill equation).
The fluorescence was measured on microplate reader (ex/em 580/620 nm, SpectraMax iD3, Molecular Devices).

[3] = Fluorescence measurement on purified RNA (Gemini-561 activation capacity); format: biochemical; settings: 500 nM RNA, 50 nM Gemini-561, ex/em 560/600 nm
Description: FIG. 6A represents Gemini-561 activation capacity of the parental SRB-2 and the evolved 4C10 variant. 500 nM of RNAs were incubated with 50 nM of Gemini-561 and the fluorescence was measured at À ex/em=560/600 nm.
FIG. 7A represents the fluorogenic capacity of SRB-2 and its evolved forms 4C10 and o-Coral. 500 nM of RNAS were incubated With 50 nM of Gemini-561 and the fluorescence was measured at X ex/em=560/600 nm. The values are the mean of 3 independent experiments, each measurement being shown as an open circle. The error bars correspond to ±1 standard deviation.
FIG. 10B represents Contribution of the dimerization and 736 the mutations to o-Coral functionality. SRB-2 aptamer was used as scaffold either in its monomeric 737 (m) or dimeric (d) form containing o-Coral linker. Indicated mutations were then implemented and the 738 different constructs tested as above.
FIG. 10C represents the identification of interacting regions. […]
1 μM purified RNA was heated for 1 min at 90° C. and cooled at 4° C. for 1 min. […] The mixture was then incubated for 10 min at 25° C. prior to measuring the fluorescence at 25° C. 011 a real-time thermocycler (ex/em 575/602 nm, MX 3005P, Agilent) or on microplate reader (ex/em 560/600 nm, SpectraMax iD3, Molecular Devices).

Molecule	Kd [2] [nM]	capacity to turn on Gemini-561 fluorescence [3]	other results
CN(C)c1ccc2c(-c3ccccc3C(=O)[O-])c3ccc(N(C)C)cc3[o+]c2c1 [Tetramethylrhodamine]	–	–	Size (hydrodynamic diameter of fluorescent specie) ([1]; fluorogen 200 nM, aptamer 1 μM): 1 nm; τcorr (correlation time) ([1]; fluorogen 200 nM, aptamer 1 μM): 0.032 ms; Brightness with respect to one molecule of the standard ([1]; standard tetramethylrhodamine for o-Coral (532 nm excitation), fluorescein for Broccoli and Corn): 1
B1	~73	an order of magnitude more fluorescent	–
B2	–	–	fluorogenicity and affinity for Gemini-561 compared with 4C10 ([2]; 6-nucleotide linker derivative of 4C10): conserved both fluorogenicity and affinity
B3	~441	poor	–
